Measurements: patent US20120165503A1 (Merck Sharp & Dohme, published 2012)
Read-outs that look alike come from different tables or passages of the source. *1 amine or outer side, *2 acyl side, *3 side chain or, on linkers, in order; H or OH if unused. Where no end group is shown, it is not given here. Side-chain parts run from the residue outwards. [ ]: non-standard residue; d: D form. The star is where a group is joined. O‑methyl‑L‑homoserine = COCC[C@H](N[*:1])C(=O)[*:2]; γGlu = O=C(O)[C@H](CCC(=O)[*:2])N[*:1]; Palmitoyl = CCCCCCCCCCCCCCCC(=O)*; Nle = CCCC[C@H](N)C(=O)O; Aib = CC(C)(N)C(=O)O

How the values were obtained:
human glucagon receptor [1] = molecular target: T1, human glucagon receptor (human, UniProt P47871 26-477); assay: cell-based or functional assay
T1 sequence (P47871 26-477): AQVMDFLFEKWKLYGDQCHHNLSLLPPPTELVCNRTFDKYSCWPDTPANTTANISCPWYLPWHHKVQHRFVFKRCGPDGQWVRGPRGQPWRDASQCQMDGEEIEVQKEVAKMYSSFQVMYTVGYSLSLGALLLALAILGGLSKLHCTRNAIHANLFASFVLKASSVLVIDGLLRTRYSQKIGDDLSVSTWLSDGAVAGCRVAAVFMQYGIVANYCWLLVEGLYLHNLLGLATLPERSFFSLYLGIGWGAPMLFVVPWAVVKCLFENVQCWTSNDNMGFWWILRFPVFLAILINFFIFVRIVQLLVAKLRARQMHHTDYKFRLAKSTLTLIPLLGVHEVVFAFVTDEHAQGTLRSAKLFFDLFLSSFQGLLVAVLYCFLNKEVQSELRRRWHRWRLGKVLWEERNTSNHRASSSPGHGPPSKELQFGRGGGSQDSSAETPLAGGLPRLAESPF

human GLP-1 receptor [2] = molecular target: T2, human GLP-1 receptor (human, UniProt P43220 24-463); assay: cell-based or functional assay
[3] = molecular target: T3, glucagon receptor of wild-type mice (liver, in vivo) (mouse, UniProt Q61606 27-485); assay: in vivo GCGR receptor occupancy, competition assay in wild-type mice, 3 mpk s.c.
T3 construct: whole, on cells; Receptor occupancy measured in vivo in liver; also called GCGR; GGCR
T3 sequence (Q61606 27-485): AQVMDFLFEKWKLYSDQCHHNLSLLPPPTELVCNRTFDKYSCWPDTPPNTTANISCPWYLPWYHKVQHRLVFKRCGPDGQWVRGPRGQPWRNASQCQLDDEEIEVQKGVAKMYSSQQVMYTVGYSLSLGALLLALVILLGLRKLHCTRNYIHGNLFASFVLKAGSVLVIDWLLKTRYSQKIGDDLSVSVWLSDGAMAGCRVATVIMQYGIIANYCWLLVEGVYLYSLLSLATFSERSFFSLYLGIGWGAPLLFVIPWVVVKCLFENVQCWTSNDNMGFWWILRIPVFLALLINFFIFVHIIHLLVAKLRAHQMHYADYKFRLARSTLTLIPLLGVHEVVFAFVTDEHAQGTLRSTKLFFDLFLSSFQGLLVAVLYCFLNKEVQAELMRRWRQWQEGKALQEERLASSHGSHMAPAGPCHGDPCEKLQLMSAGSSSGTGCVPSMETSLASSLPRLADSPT

human glucagon receptor [4] = molecular target: T1, human glucagon receptor; assay: cell-based or functional assay; remark: listed apart in the source
human GLP-1 receptor [5] = molecular target: T2, human GLP-1 receptor; assay: cell-based or functional assay; remark: listed apart in the source
human glucagon receptor [6] = molecular target: T1, human glucagon receptor; assay: cell-based or functional assay; remark: listed apart in the source
human GLP-1 receptor [7] = molecular target: T2, human GLP-1 receptor; assay: cell-based or functional assay; remark: listed apart in the source
[8] = molecular target: T3, glucagon receptor of wild-type mice …; assay: in vivo competition with 125I-glucagon, liver of wild-type mice, s.c. dosing
human GLP-1 receptor [9] = molecular target: T2, human GLP-1 receptor; assay: receptor binding affinity (GLP-1R IC50); assay format not described
human glucagon receptor [10] = molecular target: T1, human glucagon receptor; assay: cell-based or functional assay; remark: listed apart in the source
human GLP-1 receptor [11] = molecular target: T2, human GLP-1 receptor; assay: cell-based or functional assay; remark: listed apart in the source

| Binder | % Activation of GCGR (human glucagon receptor [1]) [%] | GCGR + 10% plasma (human glucagon receptor [1]) [nM] | GCGR EC50 (human glucagon receptor [1]) [nM] | GLP-1R EC50 (human GLP-1 receptor [2]) [nM] | % RO @ 3 mpk s.c. [3] [%] | further results |
| --- | --- | --- | --- | --- | --- | --- |
| H[Aib]QGTFTSDYSKYLDSRRAQDFVQWL[Nle]NTKRNRNNIAC(cholesterol)-NH2 [OXM212] | 115 | 1030 | 11.3 | 0.6 | – | GCGR + 10% plasma (fold shift) (human glucagon receptor [1]): 92 fold |
| H[Aib]QGTFTSDYSKYLDSRRAQDFVQWL[O‑methyl‑L‑homoserine]NTKRNRNNIAC(cholesterol)-NH2 [OXM213] | – | 1210 | 27.6 | 0.3 | – | – |
| HXQGTFTSDYSKYLDSRRAQDFVQWLMNTKRNRNNIAC (Aib at position 2; C4 = Cys(cholest-5-en-3-yl{[(2R)-3-amino-2-(amino)-3-oxopropyl]thio}acetate) at position 38; C-terminal amide) [OXM70] | – | 169 | 2.4 | 0.15 | ~0 | – |
| HSQGTFTSDYSKYLDSRRAQDFVQWLMNTKRNRNNIAC (D-Ser at position 2; C7 = Cys(Oxa4-cholesterol) at position 38; C-terminal amide) [OXM115] | 100 | 0.64 | 0.33 | 0.08 | 36 | – |
| HXQGTFTSDYSKYLDSRRAQDFVQWLMNTKRNRNNIAC (Aib at position 2; C7 = Cys(Oxa4-cholesterol) at position 38; C-terminal amide) [OXM216] | 93 | 12 | 0.63 | 3.1 | 10 | – |
| HXQGTFTSDYSKYLDSRRAQDFVQWLMNTKRNRNNIAK (Aib at position 2; K(palmitoyl) at position 38; C-terminal amide) [OXM177] | 93 | 3 | 0.59 | 0.1 | 30 | GCGR + 10% plasma (fold shift) (human glucagon receptor [1]): 5 fold |
| H[dS]QGTFTSDK([γGlu-γGlu-Palmitoyl])SKYLD[Aib]RRAQDFVQWLMNTK[γGlu]-NH2 (N-terminus assumed; SMILES CCCCCCCCCCCCCCCC(=O)N[C@@H](CCC(=O)N[C@@H](CCC(=O)NCCCC[C@H](NC(=O)[C@H](CC(=O)O)NC(=O)[C@H](CO)NC(=O)[C@@H](NC(=O)[C@H](Cc1ccccc1)NC(=O)[C@@H](NC(=O)CNC(=O)[C@H](CCC(N)=O)NC(=O)[C@@H](CO)NC(=O)[C@@H](N)Cc1c[nH]cn1)[C@@H](C)O)[C@@H](C)O)C(=O)N[C@@H](CO)C(=O)N[C@@H](CCCCN)C(=O)N[C@@H](Cc1ccc(O)cc1)C(=O)N[C@@H](CC(C)C)C(=O)N[C@@H](CC(=O)O)C(=O)NC(C)(C)C(=O)N[C@@H](CCCNC(=N)N)C(=O)N[C@@H](CCCNC(=N)N)C(=O)N[C@@H](C)C(=O)N[C@@H](CCC(N)=O)C(=O)N[C@@H](CC(=O)O)C(=O)N[C@@H](Cc1ccccc1)C(=O)N[C@H](C(=O)N[C@@H](CCC(N)=O)C(=O)N[C@@H](Cc1c[nH]c2ccccc12)C(=O)N[C@@H](CC(C)C)C(=O)N[C@@H](CCSC)C(=O)N[C@@H](CC(N)=O)C(=O)N[C@H](C(=O)N[C@@H](CCCCN)C(=O)N[C@@H](CCC(N)=O)C(=O)O)[C@@H](C)O)C(C)C)C(=O)O)C(=O)O) [OXM418] | – | – | – | – | – | hGCGR + 20% plasma EC50 (human glucagon receptor [4]): 0.3 nM; hGLP-1R + 20% Plasma EC50 (human GLP-1 receptor [5]): 0.3 nM; hGCGR EC50 (human glucagon receptor [6]): 2 pM; hGLP-1R EC50 (human GLP-1 receptor [7]): 0.026 nM |
| HSEGTFTSDYSKYLDSRRAQDFVQWLMNTKRNRNNIA (Native OXM with Glu instead of Gln at position 3; the entry already carries the change; also called OXM8 (Q3E); GLP-1 mimetic) [OXM-Q3E] | – | – | – | – | – | binding result [8]: no binding; IC50 (human GLP-1 receptor [9]): 237 nM; % Activation of GCGR (human glucagon receptor [10]): 17%; GCGR EC50 (human glucagon receptor [10]): 1640 nM; GLP-1R EC50 (human GLP-1 receptor [11]): 12.4 nM |
| HSDGTFTSDYSKYLDSRRAQDFVQWLMNTKRNRNNIA [OXM-Q3D] | – | – | – | – | – | % Activation of GCGR (human glucagon receptor [10]): 1%; GCGR EC50 (human glucagon receptor [10]): 3400 nM; GLP-1R EC50 (human GLP-1 receptor [11]): 2.3 nM |
